{"source": "paper PMC9569855", "about": "(2022)", "binders": {"B1": {"name": "Bamlanivimab (antibody, V domains shown)", "VH": "QVQLVQSGAEVKKPGSSVKVSCKASGGTFSNYAISWVRQAPGQGLEWMGRIIPILGIANYAQKFQGRVTITADKSTSTAYMELSSLRSEDTAVYYCARGYYEARHYYYYYAMDVWGQGTAVTVSS", "VL": "not shown"}}, "target": "SARS-CoV-2 wild type RBD (319-541aa) (SARS-CoV-2, UniProt P0DTC2 319-541)", "experiment": "SPR", "data": [{"binder": "B1", "values": [{"measurement": "koff", "result": 0.0014, "unit": "s⁻¹"}]}]}
